Earlier results in PMC5012295.

Target: Complement C4b (Homo sapiens) (UniProt P0C0L4)
Assay: AlphaScreen

UniProt P0C0L4, sequence (P0C0L4 20-675, chain 1 of 2): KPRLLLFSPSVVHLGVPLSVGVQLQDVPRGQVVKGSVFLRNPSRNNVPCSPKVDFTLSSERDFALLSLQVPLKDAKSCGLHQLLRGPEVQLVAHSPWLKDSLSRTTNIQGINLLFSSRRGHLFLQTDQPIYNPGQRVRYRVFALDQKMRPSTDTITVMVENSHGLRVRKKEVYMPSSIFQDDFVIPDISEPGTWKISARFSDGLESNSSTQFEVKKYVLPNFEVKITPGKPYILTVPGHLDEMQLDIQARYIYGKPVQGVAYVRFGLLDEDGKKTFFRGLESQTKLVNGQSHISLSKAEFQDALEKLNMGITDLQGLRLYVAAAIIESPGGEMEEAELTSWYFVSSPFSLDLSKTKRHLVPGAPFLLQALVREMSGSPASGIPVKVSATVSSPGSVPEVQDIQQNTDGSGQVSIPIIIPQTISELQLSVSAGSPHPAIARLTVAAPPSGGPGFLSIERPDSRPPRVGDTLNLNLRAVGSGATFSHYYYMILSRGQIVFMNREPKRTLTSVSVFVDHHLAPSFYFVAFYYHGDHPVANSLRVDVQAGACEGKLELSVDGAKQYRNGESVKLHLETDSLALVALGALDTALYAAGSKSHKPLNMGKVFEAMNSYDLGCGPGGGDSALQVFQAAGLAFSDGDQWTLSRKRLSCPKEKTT
UniProt P0C0L4, sequence (P0C0L4 20-675, chain 2 of 2): as the sequence (P0C0L4 20-675, chain 1 of 2) above

Substance | Kd [µM]
Eap34 domains 3-4 (from UniProt Q99QS1) | 0.525
Eap (from UniProt Q99QS1) | 0.185
